Two proteins from paper PMC1810434, “Breakage-Reunion Domain of Streptococcus pneumoniae Topoisomerase IV: Crystal Structure of a Gram-Positive Quinolone Target” (PLoS ONE, 2007) can be followed below.

The series concerns the molecule itself. Description: crystal structure; hanging drop vapor diffusion at ambient temperature; space group I222; solved by molecular replacement; asymmetric unit of two biological dimers; wild-type data to 2.7 Å, Cys426 data to 3.25 Å.

B1: ParC55, 55.5 kDa N-terminal breakage-reunion domain of Streptococcus pneumoniae topoisomerase IV subunit A (ParC) (domain or fragment)
chain: MSNIQNMSLEDIMGERFGRYSKYIIQDRALPDIRDGLKPVQRRILYSMNKDSNTFDKSYRKSAKSVGNIMGNFHPHGDSSIYDAMVRMSQNWKNREILVEMHGNNGSMDGDPPAAMRYTEARLSEIAGYLLQDIEKKTVPFAWNFDDTEKEPTVLPAAFPNLLVNGSTGISAGYATDIPPHNLAEVIDAAVYMIDHPTAKIDKLMEFLPGPDFPTGAIIQGRDEIKKAYETGKGRVVVRSKTEIEKLKGGKEQIVIIEIPYEINKANLVKKIDDVRVNNKVAGIAEVRDESDRDGLRIAIELKKDANTELVLNYLFKYTDLQINYNFNMVAIDNFTPRQVGIVPILSSYIAHRREVILARSRFDKEKAEKRLHIVEGLIRVISILDEVIALIRASENKADAKENLKVSYDFTEEQAEAIVTLQLYRLTNTDVVVLQEEEAELREKIAMLAAIIGDERTMYNLMKKELREVKKKFATPRLSSLEDTAKALE
notes: ParC (topoisomerase IV subunit A), S. pneumoniae strain 7785, residues 1-490, with the substitution I489L needed for plasmid construction; also called wild-type ParC55; N-terminal ParC domain; source: E. coli, pET29a expression plasmid, purified by Ni2+-NTA chromatography; not shown: His6, C-terminal, kept
As for B1, the binding result is on record as “binds”.

B2: ParC55 Cys426 (ParC55 with Arg426 changed to Cys) (domain or fragment)
chain: MSNIQNMSLEDIMGERFGRYSKYIIQDRALPDIRDGLKPVQRRILYSMNKDSNTFDKSYRKSAKSVGNIMGNFHPHGDSSIYDAMVRMSQNWKNREILVEMHGNNGSMDGDPPAAMRYTEARLSEIAGYLLQDIEKKTVPFAWNFDDTEKEPTVLPAAFPNLLVNGSTGISAGYATDIPPHNLAEVIDAAVYMIDHPTAKIDKLMEFLPGPDFPTGAIIQGRDEIKKAYETGKGRVVVRSKTEIEKLKGGKEQIVIIEIPYEINKANLVKKIDDVRVNNKVAGIAEVRDESDRDGLRIAIELKKDANTELVLNYLFKYTDLQINYNFNMVAIDNFTPRQVGIVPILSSYIAHRREVILARSRFDKEKAEKRLHIVEGLIRVISILDEVIALIRASENKADAKENLKVSYDFTEEQAEAIVTLQLYCLTNTDVVVLQEEEAELREKIAMLAAIIGDERTMYNLMKKELREVKKKFATPRLSSLEDTAKALE
notes: PDB 2NOV holds the parent (wild-type ParC55); No entry of its own is named for the Cys426 data set; also called ParC Cys426; Cys426 mutant; source: E. coli, purified by Ni2+-NTA chromatography as for wild-type ParC55
As to B2, the binding result is “binds”.
